Consider one substance from publication PMC6135941.

For orientation: Ki means a dissociation constant, usually derived from enzyme kinetics or from competition with a known ligand. Higher therefore signals lower affinity.

In the experiment the target is 62 kDa active MMP-2. As to the kind of experiment: enzyme inhibition kinetics.

For the substance “TIMP-2-His6 Y90E expressed in HEK293H cells (from UniProt P16035 27-220) (natural protein)”, the Ki is 154 pM.
